According to PMC9158529, “AfCHIL, a Type IV Chalcone Isomerase, Enhances the Biosynthesis of Naringenin in Metabolic Engineering” (Frontiers in Plant Science, 2022):

Tests used:
[1] = test system: T1, AfCHS; test: HPLC at […] nm, Michaelis-Menten fit; type: biochemical, Allium fistulosum; settings: 200 uM malonyl-CoA, 20-200 uM p-coumaroyl-CoA, HEPES-KOH pH 7.0, 2 mM DTT, 35 °C, 30 min
T1 construct: gene CHS; complete ORF in pET-15b, His6-tagged, E. coli BL21 (DE3), His-tag purified

[2] = test system: T2, AfCHS/AfCHIL; test: HPLC at […] nm, Michaelis-Menten fit; type: biochemical, Allium fistulosum; settings: AfCHIL present; 200 uM malonyl-CoA, 20-200 uM p-coumaroyl-CoA
T2 construct: gene CHS; complete ORFs in pET-15b, His6-tagged, E. coli BL21 (DE3), combined in the assay; legend calls it AfCHIL/AfCHS1; with Chalcone isomerase-like protein (type IV chalcone isomerase)

[3] = target: AfCHS, chalcone synthase of Allium fistulosum (yeast two-hybrid fusion) (Allium fistulosum)
[4] = target: AfCHS, chalcone synthase of Allium fistulosum (yeast two-hybrid fusion) (Allium fistulosum); remark: listed apart in the source

Km [1] | Km [2] | Kcat of purified His6-AfCHS (p-coumaroyl-CoA and malonyl-CoA as substrates) in the presence of purified His6-AfCHIL, against AfCHS alone [3] | by-product CTAL produced by purified AfCHS in vitro with AfCHIL present, against AfCHS alone [4] | naringenin produced by purified AfCHS in vitro with AfCHIL present, against AfCHS alone [4] | Compound
55.1 ± 12.5 µM | 53.9 ± 10 µM |  |  |  | CC(C)(COP(=O)(O)OP(=O)(O)OC[C@H]1O[C@@H](n2cnc3c(N)ncnc32)[C@H](O)[C@@H]1OP(=O)(O)O)[C@@H](O)C(=O)NCCC(=O)NCCSC(=O)/C=C/c1ccc(O)cc1 [p-coumaroyl-CoA]
 |  | 2.7 times | 30 % decrease | 2.2 times | AfCHIL, type IV chalcone isomerase of Allium fistulosum (yeast two-hybrid fusion) (natural protein)
